Experimental findings from paper PMC3076674 (Nature structural & molecular biology, 2011) are described below.

This test concerns the target T1, MED25 VP16-binding domain (VBD) (human, UniProt Q71SY5 390-553).
T1 sequence (looked up): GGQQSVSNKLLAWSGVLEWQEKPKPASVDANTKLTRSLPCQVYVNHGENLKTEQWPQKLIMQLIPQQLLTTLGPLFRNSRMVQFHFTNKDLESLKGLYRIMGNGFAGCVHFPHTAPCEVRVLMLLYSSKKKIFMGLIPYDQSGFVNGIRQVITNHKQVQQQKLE
The test can be described thus: ITC.

B1: VP16 TAD (full-length transactivation domain, amino acids 411-490) (domain or fragment, Herpes simplex virus 1, UniProt P06492 411-490, looked up)
chain: STAPPTDVSLGDELHLDGEDVAMAHADALDDFDLDMLGDGDSPGPGFTPHDSAPYGALDMADFEFEQMFTDALGIDEYGG
Molecule B1 came in with an equilibrium dissociation constant (Kd) of about 50 nM.
